Test results: the Human Domainome abundance scans (Beltran et al. 2025)
± gives the uncertainty stated by the source.

B1: Homeobox protein cut-like 1, residues 548 to 629; numbered along this chain, P39880 (parent)
chain: GEEMDTAEIARQVKEQLIKHNIGQRIFGHYVLGLSQGSVSEILARPKPWNKLTVRGKEPFHKMKQFLSDEQNILALRSIQGR

Variants of: B1
Test: abundance fitness (aPCA) (normalised: wild type 0, dead -1); higher = more abundant; growth selection in yeast, the domain comes from the species named
Settings: Homo sapiens

Abundance fitness of substitutions, site by site:
P59: T 0.088 ± 0.041; N 0.113 ± 0.084; R 0.023 ± 0.025; S 0.076 ± 0.036; I 0.099 ± 0.057; D 0.047 ± 0.051; C 0.1 ± 0.058; M 0.078 ± 0.04; Q 0.078 ± 0.043; A 0.091 ± 0.031; Y 0.025 ± 0.068; E 0.101 ± 0.03; K -0.034 ± 0.037; H 0.025 ± 0.066; W 0.077 ± 0.032; L 0.133 ± 0.035; F 0.052 ± 0.068; G -0.024 ± 0.024
Q71: P -0.673 ± 0.085; E 0.06 ± 0.033; I -0.212 ± 0.064; H -0.16 ± 0.07; Y -0.257 ± 0.064; S 0.047 ± 0.035; N -0.099 ± 0.056; D -0.035 ± 0.049; V -0.2 ± 0.032; M -0.137 ± 0.041; T -0.011 ± 0.043; R -0.049 ± 0.027; F -0.204 ± 0.057; G -0.037 ± 0.024; W -0.293 ± 0.035; C -0.11 ± 0.044
Q65: T -0.029 ± 0.037; F -0.446 ± 0.11; W -0.201 ± 0.034; A -0.02 ± 0.028; R -0.039 ± 0.024; V -0.117 ± 0.026; N 0.022 ± 0.057; P -0.933 ± 0.092; M -0.056 ± 0.034; I -0.096 ± 0.08; K -0.076 ± 0.035; E 0.053 ± 0.028; Y -0.169 ± 0.055; C -0.172 ± 0.063; S -0.059 ± 0.033; G -0.232 ± 0.023; L -0.082 ± 0.029
I73: W 0.05 ± 0.032; T -0.163 ± 0.039; R -0.56 ± 0.034; M -0.064 ± 0.038; D -0.745 ± 0.088; P -0.303 ± 0.048; Q -0.336 ± 0.048; E -0.637 ± 0.048; S 0.005 ± 0.036; L -0.064 ± 0.033; Y -0.627 ± 0.13; G -0.44 ± 0.03; A -0.019 ± 0.032; H -0.5 ± 0.088; C -0.129 ± 0.059; N -0.51 ± 0.075; F -0.026 ± 0.06; V 0.038 ± 0.029
E70: F -0.213 ± 0.063; T -0.121 ± 0.047; Y -0.152 ± 0.058; R -0.055 ± 0.026; W -0.217 ± 0.036; I -0.187 ± 0.057; D -0.043 ± 0.042; S -0.083 ± 0.032; L -0.307 ± 0.035; G -0.126 ± 0.025; Q -0.047 ± 0.044; V -0.154 ± 0.03; N -0.084 ± 0.065; C -0.118 ± 0.047; P 0.026 ± 0.044; H 0.001 ± 0.057; A -0.026 ± 0.031; M -0.139 ± 0.038
M63: Y -0.94 ± 0.14; N -1.16 ± 0.19; D -0.949 ± 0.11; K -0.992 ± 0.074; G -1.04 ± 0.045; E -0.872 ± 0.056; A -0.677 ± 0.043; R -1 ± 0.05; L -0.423 ± 0.038; H -1.13 ± 0.21; V -0.886 ± 0.051; I -0.31 ± 0.069; W -1.02 ± 0.071; T -0.777 ± 0.057; P -0.797 ± 0.076; F -0.753 ± 0.16
F60: S -0.869 ± 0.068; I -0.306 ± 0.12; G -0.952 ± 0.045; C -0.762 ± 0.26; W 0.035 ± 0.04; V -0.911 ± 0.057; Q -0.761 ± 0.063; D -0.803 ± 0.11; Y 0.019 ± 0.069; P -0.897 ± 0.091; A -0.944 ± 0.064; R -1.01 ± 0.051; E -0.799 ± 0.055; T -0.835 ± 0.074; M -0.536 ± 0.057
L76: V -0.357 ± 0.035; S -0.697 ± 0.056; C -0.484 ± 0.061; R -0.945 ± 0.057; A -0.638 ± 0.052; E -0.758 ± 0.063; G -0.806 ± 0.04; Q -0.6 ± 0.086; M -0.461 ± 0.054; K -0.861 ± 0.12; P -0.586 ± 0.12; N -0.856 ± 0.16; D -0.716 ± 0.092; I -0.291 ± 0.066; T -0.752 ± 0.086
A75: F -0.066 ± 0.061; D 0.109 ± 0.049; P -0.314 ± 0.047; C -0.11 ± 0.049; T 0.012 ± 0.037; Q 0.038 ± 0.047; E 0.092 ± 0.034; N 0.187 ± 0.061; L -0.061 ± 0.032; W 0.009 ± 0.033; K 0.095 ± 0.04; M -0.039 ± 0.037; R 0.05 ± 0.026; Y -0.027 ± 0.05; V -0.127 ± 0.033; I -0.146 ± 0.059; S 0.041 ± 0.031
N72: K -0.007 ± 0.039; W -0.131 ± 0.035; L -0.251 ± 0.034; P -0.432 ± 0.05; H -0.063 ± 0.057; F -0.143 ± 0.05; D -0.221 ± 0.044; V -0.315 ± 0.033; G -0.04 ± 0.025; M -0.132 ± 0.041; I -0.289 ± 0.06; R -0.137 ± 0.027; T -0.115 ± 0.039; C -0.098 ± 0.049; Q 0.03 ± 0.041; A 0.049 ± 0.033; Y -0.099 ± 0.053
